Results taken from patent publication US20150368642A1, “LNA OLIGONUCLEOTIDE CARBOHYDRATE CONJUGATES” (HOFFMANN-LA ROCHE INC., priority 2013, published 2015).
Strand notation (5' to 3'): a small letter for the sugar, then the base; units joined by * are phosphorothioate-linked, units joined directly phosphodiester-linked; [ ] holds rarer units or linkages, { } end groups; capitals alone tell only the bases. l = locked nucleic acid (LNA); [5mC] = 5-methylcytosine; d = 2'-deoxy (DNA)

Tests used:
[1] = In vitro cleavage in serum; format: in vitro ADME; settings: 200 μg/g
Protocol: (§1) Liver, kidney and serum (see table below) were spiked with oligonucleotide SEQ ID NO 21 to concentrations of 200 μg/g tissue. Liver and kidney samples collected from NMRI mice were homogenized in a homogenisation buffer (0.5% Igepal CA-630, 25 mM Tris pH 8.0, 100 mM NaCl, pH 8.0 (adjusted with 1 N NaOH). The homogenates were incubated for 24 hours at 37° and thereafter the homogenates were extracted with phenol-chloroform. The content of cleaved and non cleaved oligonucleotide in the extract from liver and kidney and from the serum were determined against a standard using the above HPLC method.

[2] = In vitro cleavage in kidney homogenate; format: in vitro ADME, NMRI mice; settings: 200 μg/g tissue, 24 hours at 37°
Protocol: as §1

[3] = In vitro cleavage in liver homogenate; format: in vitro ADME, NMRI mice; settings: 200 μg/g tissue, 24 hours at 37°
Protocol: as §1

[4] = system: HBV; settings: WO2011/47312; cited from earlier work
[5] = system: HBV; test: HBV mouse hydrodynamic tailvein injection model, HBV DNA in liver by qPCR; format: in vivo, Balb/C mouse; settings: Balb/C mice, single injection 24 hours before hydrodynamic injection; SEQ ID 55 2 and 10 mg/kg, SEQ ID 56 2.7 and 13.5 mg/kg
Source text: An LNA oligomer can be assessed for antiviral effect in vivo in a mouse strain, such as BALB/c or C57B/6, where HBV replication can be established by hydrodynamic tail vein injection of a plasmid, such as pAAV/HBV1.3, expressing a partially repeated HBV pregenomic RNA (J Virol. 1995 October; 69(10):6158-69) or pAAV2/HBV1.3, a derivative thereof (WuxiAppTech, Wuxi, China). The injection of the plasmid in a high volume of saline, equal to 8-12% of the body mass of the mouse, will result in the accumulation and expression of the viral pregenomic RNA in the liver, subsequently leading to the establishment of an acute HBV infection. Treatment of the animals with an LNA oligomer can be initiated 1 or more days before the injection of the plasmid or 1 day after the injection of the plasmid. Delivery of the LNA oligomer in saline can be done by intravenous or subcutaneous injection.
An in vivo experiment was performed on SEQ ID 55 and SEQ ID 56, the latter being a GalNAC conjugate of the former (conj1a). The LNA compounds were tested for efficacy against HBV in the mouse hydrodynamic tailvein injection model using the Balb/C mouse strain. LNA compounds were be tested at equimolar doses; 2 and 10 mg/kg, single injection (SEQ ID 55) and at 2.7 and 13.5 mg/kg, single injection (SEQ ID 56). The LNA anti-HBV compounds were compared to saline and to entecavir, an inhibitor of the HBV reverse transcriptase. Entecavir was dosed p.o. daily at 0.1 mg/kg. Where applicable, the animals were treated with the LNA compound 24 hours before the hydrodynamic injection. Entecavir was given in daily doses as described starting 24 hours after the hydrodynamic injection. […] All the animals were monitored on a daily basis for body weight changes and clinical signs for the duration of the in vivo study. […] All the blood samples were collected in tubes containing heparin sodium The portion of the left lobe of each liver was used to determine the level of HBV DNA replication by qPCR, as copies per unit weight of liver in which the quantity of total HBV DNA level is subtracted by the quantity of pAAV2/HBV DNA level. […]

Substance	% cleaved after 24 hours in serum [1]	% cleaved after 24 hrs kidney homogenate [2]	% cleaved after 24 hrs liver homogenate [3]	effectiveness against HBV as highlighted in the art [4]	effect on replication of HBV / HBV DNA level in the liver [5]
21 (TCAGCATTGGTATTCA; LNA gapmer conjugate, pattern not given here) [compound 21]	0%	95%	83%		
SEQ ID NO 55: 5′-GsAsGsGscsastsasgscsasgs^mCsAsGsG-3′; HBV LNA gapmer disclosed in WO2011/47312 (lG*lA*lG*lG*dC*dA*dT*dA*dG*dC*dA*dG*l[5mC]*lA*lG*lG) [reference compound]				particularly effective against HBV	little effect on the replication of HBV in the liver
